Experimental data: the supplement of paper PMC10126150
± gives the standard deviation of the averaged measurements.
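Note: ATP exposure 15 min at 22 °C before imaging.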

These sequences were tested on ATP (assay: switch fluorescence ratio, 500 uM ATP over buffer (Cy3 cluster intensity, sum of 5 cycles each) (fold (ratio)); higher = stronger signal-on switching upon ATP binding; sequences stand for … in TCGTCGGCAGCGTCAGATGTGTATAAGAGACAGTTTTTTTTTTTTTTTTTTTTTTTTT…TC). Conditions: aptamer strand: ATP DNA aptamer (quencher-CACCTGGGGGAGTATTGCGGAGGAAGG + anchor), 100 nM annealed; ATP concentration: 500 uM.
Procedure, shortened: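 The quencher-labelled ATP aptamer, at 100 nM, was annealed to Cy3-labelled switching-strand clusters on a modified Illumina MiSeq flow-cell. The clusters were imaged in selection buffer, then after 15 min with 500 uM ATP at 22 °C, and this buffer/ATP cycle ran five times with NaOH stripping and re-annealing between runs. Per-cluster fluorescence ratios, summed target-cycle over summed buffer-cycle Cy3 intensity, were averaged per switch-domain sequence. Clusters outside 100-1000 RFU were excluded.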
AAAAAAACCT showed a switch fluorescence ratio of 1.28 ± 0.39. AAAAAAAGAT showed a switch fluorescence ratio of 1.01 ± 0.039. Work on AAAAAAGAAA yielded a switch fluorescence ratio of 0.982 ± 0.015. For AAAAAAGACG, the switch fluorescence ratio was 1.05 ± 0.017. AAAAAATTGC showed a switch fluorescence ratio of 1.04 ± 0.058. Work on AAAAAATTTT yielded a switch fluorescence ratio of 1.01 ± 0.023. AAAAACATAG gave a switch fluorescence ratio of 1.03 ± 0.017. For AAAAACGGGG, the switch fluorescence ratio was 1.009 ± 0.0075. Work on AAAAACGTAT yielded a switch fluorescence ratio of 1.03 ± 0.04. Sequence AAAAACTAAT has a switch fluorescence ratio of 0.992 ± 0.088. For AAAAAGCTGG, the switch fluorescence ratio was 1.03 ± 0.038. AAAAAGGATA was tested, and the switch fluorescence ratio was 0.9884 ± 0.0013. With AAAAAGTGCC the switch fluorescence ratio was 1.07 ± 0.11. In the case of AAAAAGTTTG, the switch fluorescence ratio is reported as 1 ± 0.04. With AAAAATAGTT the switch fluorescence ratio was 1.03 ± 0.07. Sequence AAAAATCGAA has a switch fluorescence ratio of 1.02 ± 0.05. For AAAAATGACG, the switch fluorescence ratio was 0.991 ± 0.028. AAAAATGGAG gave a switch fluorescence ratio of 0.958 ± 0.017. AAAAATTTGG was tested, and the switch fluorescence ratio was 1 ± 0.06. Work on AAAACACGCT yielded a switch fluorescence ratio of 1.18 ± 0.2. Sequence AAAACAGTT has a switch fluorescence ratio of 1.05 ± 0.02. With AAAACCAGGG the switch fluorescence ratio was 1.08 ± 0.033. For AAAACCAGTA, the switch fluorescence ratio was 1.01 ± 0.075. AAAACCTCAC showed a switch fluorescence ratio of 1.56 ± 0.13. AAAACGACAG was tested, and the switch fluorescence ratio was 1.04 ± 0.013. Work on AAAACTTAGA yielded a switch fluorescence ratio of 0.956 ± 0.041. AAAACTTAGG gave a switch fluorescence ratio of 0.978 ± 0.012. In the case of AAAACTTCCT, the switch fluorescence ratio is reported as 2.5 ± 0.67. AAAAGAGTGT was tested, and the switch fluorescence ratio was 1.01 ± 0.023. Sequence AAAAGATAGC has a switch fluorescence ratio of 0.989 ± 0.04. In the case of AAAAGATTGT, the switch fluorescence ratio is reported as 1.043 ± 0.0085. With AAAAGCATGT the switch fluorescence ratio was 1.06 ± 0.03. Work on AAAAGGAGGA yielded a switch fluorescence ratio of 1.02 ± 0.043. With AAAAGGATCT the switch fluorescence ratio was 1.02 ± 0.029. In the case of AAAAGGATTG, the switch fluorescence ratio is reported as 0.982 ± 0.04. In the case of AAAAGGGCAT, the switch fluorescence ratio is reported as 1.01 ± 0.015. For AAAAGGGCTT, the switch fluorescence ratio was 1 ± 0.012. AAAAGGGTGA was tested, and the switch fluorescence ratio was 1.02 ± 0.01. AAAAGGTTTC was tested, and the switch fluorescence ratio was 1.02 ± 0.024. Work on AAAAGTCTGA yielded a switch fluorescence ratio of 1.01 ± 0.041. Sequence AAAAGTGGGG has a switch fluorescence ratio of 1.02 ± 0.019. In the case of AAAAGTGTCG, the switch fluorescence ratio is reported as 1.06 ± 0.056. Sequence AAAATAAATG has a switch fluorescence ratio of 1.01 ± 0.017. AAAATAAGGA gave a switch fluorescence ratio of 0.986 ± 0.018. AAAATAATTG gave a switch fluorescence ratio of 1.03 ± 0.025. AAAATACATT showed a switch fluorescence ratio of 0.993 ± 0.039. For AAAATACCTA, the switch fluorescence ratio was 1.15 ± 0.14. AAAATAGGGG gave a switch fluorescence ratio of 1.04 ± 0.044. AAAATCATTG gave a switch fluorescence ratio of 0.9615 ± 0.0027. AAAATCGAGC showed a switch fluorescence ratio of 1.02 ± 0.015. Sequence AAAATCGAGG has a switch fluorescence ratio of 1.016 ± 0.004. In the case of AAAATCGCGG, the switch fluorescence ratio is reported as 0.9844 ± 0.0018. AAAATCGTGA gave a switch fluorescence ratio of 1.009 ± 0.0097. In the case of AAAATGAAAA, the switch fluorescence ratio is reported as 0.987 ± 0.0071. AAAATGATGG showed a switch fluorescence ratio of 1 ± 0.0073. Work on AAAATGGTAA yielded a switch fluorescence ratio of 1.001 ± 0.0057. AAAATGTGGT was tested, and the switch fluorescence ratio was 1 ± 0.015. In the case of AAAATGTGTT, the switch fluorescence ratio is reported as 1.01 ± 0.018. AAAATTAGGC showed a switch fluorescence ratio of 0.919 ± 0.063. In the case of AAAATTGGGA, the switch fluorescence ratio is reported as 1.01 ± 0.035. AAAATTTACG was tested, and the switch fluorescence ratio was 1.1 ± 0.16. AAAATTTGGT showed a switch fluorescence ratio of 1.04 ± 0.029. Sequence AAAATTTTGC has a switch fluorescence ratio of 1.12 ± 0.2. AAACACTAAG was tested, and the switch fluorescence ratio was 1.08 ± 0.016. Work on AAACAGCGTA yielded a switch fluorescence ratio of 1.01 ± 0.032. Work on AAACAGGGTG yielded a switch fluorescence ratio of 1.05 ± 0.05. AAACATACCT was tested, and the switch fluorescence ratio was 1.4 ± 0.078. AAACATAGGA showed a switch fluorescence ratio of 0.992 ± 0.063. In the case of AAACATATAT, the switch fluorescence ratio is reported as 1.018 ± 0.0098. AAACCAGGGG was tested, and the switch fluorescence ratio was 1.54 ± 0.11. AAACCCGCCC gave a switch fluorescence ratio of 1.8128 ± 0.00028. In the case of AAACCGATGG, the switch fluorescence ratio is reported as 1.046 ± 0.0085. AAACGATATT gave a switch fluorescence ratio of 1.015 ± 0.0026. AAACGGACGC showed a switch fluorescence ratio of 1.2 ± 0.023. AAACGGAGTG showed a switch fluorescence ratio of 1 ± 0.023. AAACGGGCAG was tested, and the switch fluorescence ratio was 0.985 ± 0.019.
